Laboratory results as given in patent US20160185837A1 (AstraZeneca / MedImmune, published 2016).
Numbering of substitutions follows the chain as printed.

T1: rat GLP-1 receptor (rat, UniProt P32301 22-463)
T1 sequence (looked up): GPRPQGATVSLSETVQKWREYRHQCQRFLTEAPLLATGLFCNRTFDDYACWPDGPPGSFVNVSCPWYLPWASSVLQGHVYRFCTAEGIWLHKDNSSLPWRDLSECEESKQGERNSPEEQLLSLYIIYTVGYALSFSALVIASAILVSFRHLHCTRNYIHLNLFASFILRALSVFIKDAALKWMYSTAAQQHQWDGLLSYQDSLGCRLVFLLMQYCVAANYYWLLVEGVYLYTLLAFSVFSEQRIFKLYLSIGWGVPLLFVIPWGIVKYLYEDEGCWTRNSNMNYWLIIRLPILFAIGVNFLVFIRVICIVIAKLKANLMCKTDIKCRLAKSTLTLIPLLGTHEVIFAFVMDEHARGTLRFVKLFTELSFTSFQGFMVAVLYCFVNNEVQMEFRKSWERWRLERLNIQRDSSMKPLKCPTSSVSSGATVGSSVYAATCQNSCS

T2: mouse GLP-1 receptor (mouse, UniProt O35659 22-463)
T2 sequence (looked up): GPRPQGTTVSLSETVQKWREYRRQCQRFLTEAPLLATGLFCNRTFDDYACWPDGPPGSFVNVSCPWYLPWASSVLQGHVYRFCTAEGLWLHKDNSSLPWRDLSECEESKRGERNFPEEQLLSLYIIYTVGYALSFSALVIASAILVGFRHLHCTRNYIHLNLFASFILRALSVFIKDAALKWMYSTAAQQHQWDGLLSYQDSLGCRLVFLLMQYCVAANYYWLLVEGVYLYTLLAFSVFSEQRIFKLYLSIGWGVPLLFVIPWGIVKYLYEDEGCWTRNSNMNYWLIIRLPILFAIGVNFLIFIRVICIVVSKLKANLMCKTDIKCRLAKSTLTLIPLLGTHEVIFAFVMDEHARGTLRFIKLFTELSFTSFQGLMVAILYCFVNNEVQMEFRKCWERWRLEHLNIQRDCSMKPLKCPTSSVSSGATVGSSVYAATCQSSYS

T3: rat GIP receptor (rat, UniProt P43219 19-455)
T3 sequence (looked up): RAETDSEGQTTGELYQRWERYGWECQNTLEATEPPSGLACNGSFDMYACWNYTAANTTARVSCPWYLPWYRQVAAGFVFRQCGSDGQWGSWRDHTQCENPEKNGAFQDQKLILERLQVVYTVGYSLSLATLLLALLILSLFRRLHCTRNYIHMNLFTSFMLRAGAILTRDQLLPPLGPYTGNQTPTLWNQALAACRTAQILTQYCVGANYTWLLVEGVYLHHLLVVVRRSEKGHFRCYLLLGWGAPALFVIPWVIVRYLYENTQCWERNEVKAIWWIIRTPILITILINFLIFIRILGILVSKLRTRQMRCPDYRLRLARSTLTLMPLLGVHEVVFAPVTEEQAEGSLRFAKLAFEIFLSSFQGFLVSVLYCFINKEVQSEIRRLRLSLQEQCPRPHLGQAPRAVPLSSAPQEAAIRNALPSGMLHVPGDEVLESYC

T4: human GIP receptor (human, UniProt P48546 22-466)
T4 sequence (looked up): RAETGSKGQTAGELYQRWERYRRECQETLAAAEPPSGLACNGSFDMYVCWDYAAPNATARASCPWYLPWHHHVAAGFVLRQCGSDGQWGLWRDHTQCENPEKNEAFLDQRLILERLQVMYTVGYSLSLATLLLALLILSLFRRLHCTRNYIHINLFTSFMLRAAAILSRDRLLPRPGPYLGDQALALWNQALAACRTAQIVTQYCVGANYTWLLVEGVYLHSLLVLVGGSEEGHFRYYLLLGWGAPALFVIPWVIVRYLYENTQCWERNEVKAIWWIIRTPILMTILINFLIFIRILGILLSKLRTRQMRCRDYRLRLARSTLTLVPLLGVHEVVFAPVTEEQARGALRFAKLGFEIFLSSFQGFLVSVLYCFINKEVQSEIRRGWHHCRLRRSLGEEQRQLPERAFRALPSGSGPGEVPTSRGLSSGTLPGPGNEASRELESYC

T5: mouse GIP receptor (mouse, UniProt Q0P543 19-460)
T5 sequence (looked up): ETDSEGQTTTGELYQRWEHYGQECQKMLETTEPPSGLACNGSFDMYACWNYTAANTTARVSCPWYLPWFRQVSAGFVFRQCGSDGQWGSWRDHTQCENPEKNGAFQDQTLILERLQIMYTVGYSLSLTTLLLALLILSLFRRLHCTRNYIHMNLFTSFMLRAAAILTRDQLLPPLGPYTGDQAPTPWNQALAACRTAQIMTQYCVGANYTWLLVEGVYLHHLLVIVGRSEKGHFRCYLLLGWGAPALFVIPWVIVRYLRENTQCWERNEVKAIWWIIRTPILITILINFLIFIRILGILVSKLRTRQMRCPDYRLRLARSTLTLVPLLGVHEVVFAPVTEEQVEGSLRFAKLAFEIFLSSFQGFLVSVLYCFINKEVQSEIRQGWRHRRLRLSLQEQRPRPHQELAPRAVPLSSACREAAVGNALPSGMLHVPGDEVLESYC

B1: IP354 (Fc fusion)
chain: YSEGMHTSDFSKLLEEEAVRLFIEWLLAGGGGGGSGGGGSGGGGSGGGGSATHTCPPC
B2: IP379 (Fc fusion)
chain: B1 chain with M5T
B3: IP361 (Fc fusion)
chain: B1 chain with M5T, H6F, F10Y, S11R, K12I, L14K
B4: IP358 (Fc fusion)
chain: B1 chain with M5T, H6F
B5: IP363 (Fc fusion)
chain: B1 chain with M5T, H6F, F10Y, S11R, K12M, L14K
B6: IP357 (Fc fusion)
chain: B1 chain with M5T, H6F, W25F
B7: IP374 (Fc fusion)
chain: B1 chain with M5T, H6F, D9L, F10Y
B8: IP360 (Fc fusion)
chain: B1 chain with M5T, H6F, F10Y, S11R, K12I
B9: IP355 (Fc fusion)
chain: B1 chain with M5T, D9L
B10: IP370 (Fc fusion)
chain: B1 chain with M5T, H6F, D9L, F10Y, L14K
B11: IP362 (Fc fusion)
chain: B1 chain with M5T, H6F, F10Y, S11M, K12M, L14K
B12: IP371 (Fc fusion)
chain: YSEGMHTSDLSKLLEEEAVRLFIEWLLAGGGGGGGSGGGGSGGGGSGGGGSACPPC
B13: IP372 (Fc fusion)
chain: B12 chain with M5T, H6F, L10Y, K12I, L13Y, E15D
B14: IP328 (Fc fusion)
chain: YSEGTFTSDYSKLLEEEAVRLFIEWLLAGGGGGGGSGGGGSGGGGSGGGGSGGGGSGGGGSGGGGSGGGGSA

Experiments:
Test in all cases: cell-based or functional assay
rat GLP-1 receptor = target: T1, rat GLP-1 receptor
human glucagon receptor = human glucagon receptor (human, UniProt P47871 26-477)
mouse GLP-1 receptor = target: T2, mouse GLP-1 receptor
human GLP-1 receptor = human GLP-1 receptor (human, UniProt P43220 24-463)
rat GIP receptor = target: T3, rat GIP receptor
human GIP receptor = target: T4, human GIP receptor
mouse GIP receptor = target: T5, mouse GIP receptor

Binder | cAMP EC50 (rat GLP-1 receptor) | cAMP EC50 (human glucagon receptor) | cAMP EC50 (mouse GLP-1 receptor) | cAMP EC50 (human GLP-1 receptor) | cAMP EC50 (rat GIP receptor) | cAMP EC50 (human GIP receptor) | cAMP EC50 (mouse GIP receptor) | cAMP EC50, hGIPr (C3) line (human GIP receptor) | cAMP EC50, Batch 2 (rat GLP-1 receptor) | cAMP EC50, Batch 2 (human glucagon receptor) | cAMP EC50, Batch 2 (mouse GLP-1 receptor) | cAMP EC50, Batch 2 (human GLP-1 receptor) | cAMP EC50, Batch 2 (rat GIP receptor) | cAMP EC50, Batch 2 (human GIP receptor) | cAMP EC50, Batch 2 (mouse GIP receptor)
B1 | 3.6 nM | > 7370 nM | 13 nM | 1.4 nM | 0.74 nM | 0.024 nM | 270 nM |  |  |  |  |  |  |  | 
B2 | 1.5 nM | > 13200 nM | 44 nM | 0.84 nM | 0.41 nM | 0.0038 nM | 150 nM |  |  |  |  |  |  |  | 
B3 | 18 nM | > 6200 nM | 170 nM | 3.4 nM | 0.038 nM | 0.082 nM | 0.19 nM |  |  |  |  |  |  |  | 
B4 | 0.15 nM | 140 nM | 1.1 nM | 0.24 nM | 0.049 nM | 0.0094 nM | 12 nM |  |  |  |  |  |  |  | 
B5 | 1.4 nM | 560 nM | 11 nM | 0.98 nM | 0.045 nM | 0.056 nM | 0.31 nM |  |  |  |  |  |  |  | 
B6 | 0.13 nM | 110 nM | 1.1 nM | 0.27 nM | 0.067 nM | 0.014 nM | 16 nM |  |  |  |  |  |  |  | 
B7 | 0.89 nM | > 2090 nM | 19 nM | 1.4 nM | 0.41 nM | 0.2 nM | 1.9 nM |  |  |  |  |  |  |  | 
B8 | 0.15 nM | 63 nM | 1.2 nM | 0.31 nM | 0.033 nM | 0.016 nM | 0.36 nM | 2.5 nM |  |  |  |  |  |  | 
B9 | 20 nM | > 527 nM | 220 nM | 8.8 nM | 0.5 nM | 0.17 nM | 17 nM |  |  |  |  |  |  |  | 
B10 | 0.35 nM | > 9490 nM | 13 nM | 0.62 nM | 0.13 nM | 0.19 nM | 0.48 nM |  |  |  |  |  |  |  | 
B11 | 1.1 nM | > 4960 nM | 11 nM | 1.7 nM | 0.083 nM | 0.061 nM | 1.1 nM |  |  |  |  |  |  |  | 
B12 | 1.1 nM | > 6560 nM | 8.5 nM | 0.48 nM | 0.21 nM | 0.011 nM | 280 nM |  |  |  |  |  |  |  | 
B13 | 2.9 nM | > 3880 nM | 33 nM | 0.71 nM | 27 nM | 0.05 nM | 450 nM |  |  |  |  |  |  |  | 
B14 | 0.21 nM | 43 nM | 3.9 nM | 1.2 nM | 0.17 nM | 0.085 nM | 5.4 nM |  | 0.12 nM | 13 nM | 1.3 nM | 0.33 nM | 0.092 nM | 0.033 nM | 2.2 nM
